According to publication PMC3087119 (Human Mutation, 2011):

Biological target: the molecule itself
Assay: static light scattering

B1: βA3-crystallin (natural protein)
chain: METQAEQQELETLPTTKMAQTNPTPGSLGPWKITIYDQENFQGKRMEFTSSCPNVSERSFDNVRSLKVESGAWIGYEHTSFCGQQFILERGEYPRWDAWSGSNAYHIERLMSFRPICSANHKESKMTIFEKENFIGRQWEISDDYPSLQAMGWFNNEVGSMKIQSGAWVCYQYPGYRGYQYILECDHHGGDYKHWREWGSHAQTSQIQSIRRIQQ
  stoichiometry N: 2
